Tests used:
mouse ASIC3 = target: T1, mouse ASIC3 (mouse, UniProt Q6X1Y6 1-530); assay: FACS, 3T3/mASIC3 cells
T1 construct: whole, on cells; Expressed on stably transfected 3T3 cells (3T3/mASIC3); also called mASIC3
T1 sequence (looked up): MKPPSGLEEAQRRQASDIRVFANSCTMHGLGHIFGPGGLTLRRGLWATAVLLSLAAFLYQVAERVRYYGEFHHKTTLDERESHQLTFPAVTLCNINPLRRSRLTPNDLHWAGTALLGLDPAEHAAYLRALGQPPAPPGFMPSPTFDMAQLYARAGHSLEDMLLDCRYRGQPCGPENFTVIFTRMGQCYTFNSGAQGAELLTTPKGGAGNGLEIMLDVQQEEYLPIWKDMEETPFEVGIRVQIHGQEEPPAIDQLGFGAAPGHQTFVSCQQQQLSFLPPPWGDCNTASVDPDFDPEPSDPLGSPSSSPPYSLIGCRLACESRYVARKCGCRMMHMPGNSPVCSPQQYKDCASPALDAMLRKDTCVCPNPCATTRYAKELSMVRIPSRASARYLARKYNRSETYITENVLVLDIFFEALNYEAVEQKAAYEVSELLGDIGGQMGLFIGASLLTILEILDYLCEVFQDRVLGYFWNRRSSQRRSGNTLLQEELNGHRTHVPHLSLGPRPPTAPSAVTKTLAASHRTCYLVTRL
Description: (§1) For these experiments, four cell lines were constructed: (a) a mouse fibroblast 3T3 cell line stably transfected to overexpress full length human ASIC3 (3T3/hASIC3; amino acids 1-531 of NCBI accession number NP_{—}004760.1), (b) a 3T3 cell line stably transfected to co-express full length human ASIC1a and human ASIC3 (3T3/hASIC1/3; amino acids 1-528 of NCBI accession number NP_{—}001086.2 and amino acids 1-531 of NCBI accession number NP_{—}004760.1), (c) […] a stably transfected 3T3 cell line expressing the full-length mouse ASIC3 channel (3T3/mASIC3; amino acids 1-530 of NCBI accession number NP_{—}892045.2), and (d) a 3T3 cell line stably transfected to co-express full length mouse ASIC1a and mouse ASIC3 (3T3/mASIC1/3; amino acids 1-526 of NCBI accession number NP_{—}033727 and amino acids 1-530 of NCBI accession number NP_{—}892045.2). Antibody binding was determined using flow cytometry (FACS).
To perform the FACS binding experiments, adherent cells were collected with cold Millipore Accutase 3-5 minutes, spun and resuspended in ice-cold FACS buffer (PBS, 2% HI-FBS and 0.09% Na-azide). […] After incubating for 20 minutes on ice, the cells were washed and resuspended in FACS buffer, then sorted and analyzed on a flow cytometer (FACSCanto II, BD Biosciences, San Jose, Calif.) to determine relative binding by the candidate antibodies to the tested cell lines. […]

[1] = target: T2, mouse ASIC1/ASIC3 channels (co-expressed mouse ASIC1a and mouse ASIC3) (mouse, UniProt Q6NXK8 1-526; Q6X1Y6 1-530); assay: FACS, 3T3/mASIC1/3 cells, 10 nM antibody
T2 construct: whole, on cells; 3T3 cells co-expressing both subunits; also called 3T3/mASIC1/3
T2 sequence (looked up) 1: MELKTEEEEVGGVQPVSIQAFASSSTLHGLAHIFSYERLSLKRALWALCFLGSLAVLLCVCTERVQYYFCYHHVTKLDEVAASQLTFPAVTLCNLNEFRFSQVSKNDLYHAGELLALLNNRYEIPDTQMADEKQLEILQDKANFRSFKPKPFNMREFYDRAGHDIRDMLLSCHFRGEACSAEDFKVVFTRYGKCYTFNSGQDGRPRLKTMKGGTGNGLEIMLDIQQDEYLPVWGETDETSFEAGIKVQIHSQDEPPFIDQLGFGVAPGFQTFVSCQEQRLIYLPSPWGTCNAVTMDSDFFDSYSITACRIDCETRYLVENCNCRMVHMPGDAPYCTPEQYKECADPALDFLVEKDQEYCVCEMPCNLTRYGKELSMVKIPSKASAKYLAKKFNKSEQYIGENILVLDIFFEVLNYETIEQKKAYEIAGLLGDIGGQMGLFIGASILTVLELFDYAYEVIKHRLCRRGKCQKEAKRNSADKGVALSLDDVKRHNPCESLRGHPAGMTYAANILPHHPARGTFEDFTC
T2 sequence (looked up) 2: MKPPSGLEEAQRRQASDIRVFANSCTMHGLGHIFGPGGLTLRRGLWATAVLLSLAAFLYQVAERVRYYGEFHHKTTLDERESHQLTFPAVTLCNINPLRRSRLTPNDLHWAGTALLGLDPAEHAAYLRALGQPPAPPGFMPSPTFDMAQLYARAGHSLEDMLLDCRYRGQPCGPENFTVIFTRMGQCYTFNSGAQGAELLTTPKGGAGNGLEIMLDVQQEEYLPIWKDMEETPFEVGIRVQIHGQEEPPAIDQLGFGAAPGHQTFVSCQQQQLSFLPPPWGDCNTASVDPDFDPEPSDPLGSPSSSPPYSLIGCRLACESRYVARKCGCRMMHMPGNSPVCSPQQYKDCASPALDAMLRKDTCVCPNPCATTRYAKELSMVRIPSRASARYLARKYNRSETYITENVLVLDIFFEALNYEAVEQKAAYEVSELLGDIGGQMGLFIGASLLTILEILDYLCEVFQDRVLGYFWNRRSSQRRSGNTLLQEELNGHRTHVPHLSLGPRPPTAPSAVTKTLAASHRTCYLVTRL
Protocol: Antibody binding was determined using flow cytometry (FACS).
(§2) To perform the FACS binding experiments, adherent cells were collected with cold Millipore Accutase 3-5 minutes, spun and resuspended in ice-cold FACS buffer (PBS, 2% HI-FBS and 0.09% Na-azide). Anti-ASIC1 antibody at final concentrations of 10 nM was added for 20-30 minutes on ice. Cells were washed with 900 μL ice-cold FACS buffer, spun, and resuspended in 100 μL ice-cold FACS buffer. A secondary antibody which recognizes human Fc (Jackson Immuno Research, #109-136-098) and is conjugated to allophycocyanin, was then added to the cell mixture at a final concentration of 2.5 ug/mL. After incubating for 20 minutes on ice, the cells were washed and resuspended in FACS buffer, then sorted and analyzed on a flow cytometer (FACSCanto II, BD Biosciences, San Jose, Calif.) to determine relative binding by the candidate antibodies to the tested cell lines. Histograms of cells stained with anti-ASIC1 antibodies were compared with those of cells stained with secondary antibody alone. Percentage of ASIC1 signal over secondary antibody alone was calculated using FlowJo software (Tree Star, Ashland, Oreg.).

human ASIC1 = target: T3, human ASIC1 (human, UniProt P78348 1-528); assay: cell-based or functional assay
T3 sequence: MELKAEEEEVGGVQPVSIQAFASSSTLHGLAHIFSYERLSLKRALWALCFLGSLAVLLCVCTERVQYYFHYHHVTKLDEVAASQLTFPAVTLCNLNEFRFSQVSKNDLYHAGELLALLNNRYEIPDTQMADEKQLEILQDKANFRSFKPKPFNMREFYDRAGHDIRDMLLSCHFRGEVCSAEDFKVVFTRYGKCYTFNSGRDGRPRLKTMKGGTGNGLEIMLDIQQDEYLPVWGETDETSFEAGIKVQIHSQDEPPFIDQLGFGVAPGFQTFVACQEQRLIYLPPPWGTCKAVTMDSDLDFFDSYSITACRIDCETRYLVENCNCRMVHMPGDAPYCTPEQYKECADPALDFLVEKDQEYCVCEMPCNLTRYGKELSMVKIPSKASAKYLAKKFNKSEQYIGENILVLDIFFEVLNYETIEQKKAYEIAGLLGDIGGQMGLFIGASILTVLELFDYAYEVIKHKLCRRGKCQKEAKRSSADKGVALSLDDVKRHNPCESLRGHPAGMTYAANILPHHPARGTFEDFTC

human ASIC3 = target: T4, human ASIC3 (human, UniProt Q9UHC3 1-531); assay: FACS, 3T3/hASIC3 cells
T4 construct: whole, on cells; Expressed on 3T3 cells (3T3/hASIC3) or HEK293 cells (HEK/hASIC3-QCells); also called hASIC3
T4 sequence (looked up): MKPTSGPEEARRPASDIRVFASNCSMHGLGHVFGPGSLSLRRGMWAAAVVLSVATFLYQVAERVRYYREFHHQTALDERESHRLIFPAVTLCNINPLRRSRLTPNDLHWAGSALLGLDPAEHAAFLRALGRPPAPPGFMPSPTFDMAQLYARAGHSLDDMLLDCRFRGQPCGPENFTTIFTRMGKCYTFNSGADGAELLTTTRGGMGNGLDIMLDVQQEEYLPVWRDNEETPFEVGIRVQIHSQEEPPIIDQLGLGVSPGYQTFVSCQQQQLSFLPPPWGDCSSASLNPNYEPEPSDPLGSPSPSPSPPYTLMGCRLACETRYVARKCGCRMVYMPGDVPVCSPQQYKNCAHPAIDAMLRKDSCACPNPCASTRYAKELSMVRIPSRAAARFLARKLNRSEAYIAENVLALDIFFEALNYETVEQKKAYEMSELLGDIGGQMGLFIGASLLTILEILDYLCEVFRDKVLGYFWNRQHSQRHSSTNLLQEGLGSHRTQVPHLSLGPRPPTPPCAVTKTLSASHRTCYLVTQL
Description: as §1, §2

B1: H4H6718N (antibody, human IgG4, V domains shown)
VH: EVQLLESGGGLVQPGGSLRLSCAASGFTFSSFAMSWVRQAPGKGLEWVSGISGSGGGTHYADSVKGRFTISRDNSKNMVYLQMNSLRAEDTAAYYCAKEAYKWQPWGQGTLVTVSS
VL: DIQMTQSPSTLSASVGDRVIITCRASQRISSWLAWYQQKPGKAPNLLIYKASILESGVPSRFSGSGSGTEFTLTISSLQPDDFATYYCQQYNSYSYTFGQGTKLEIK
binding result (mouse ASIC3): no binding (tested: 10 nM)
binding result [1]: binds
apparent IC50, human ASIC1 current, Q-Patch (human ASIC1): < 1 nM
binding result (human ASIC3): no binding (tested: 10 nM; gated lower than 1%)
